From PMC3518268 (Science (New York, N.Y.), 2009)

T1: pseudokinase domain of STRADα (residues 59-431) (human, UniProt Q7RTN6 59-431)
T1 sequence (looked up): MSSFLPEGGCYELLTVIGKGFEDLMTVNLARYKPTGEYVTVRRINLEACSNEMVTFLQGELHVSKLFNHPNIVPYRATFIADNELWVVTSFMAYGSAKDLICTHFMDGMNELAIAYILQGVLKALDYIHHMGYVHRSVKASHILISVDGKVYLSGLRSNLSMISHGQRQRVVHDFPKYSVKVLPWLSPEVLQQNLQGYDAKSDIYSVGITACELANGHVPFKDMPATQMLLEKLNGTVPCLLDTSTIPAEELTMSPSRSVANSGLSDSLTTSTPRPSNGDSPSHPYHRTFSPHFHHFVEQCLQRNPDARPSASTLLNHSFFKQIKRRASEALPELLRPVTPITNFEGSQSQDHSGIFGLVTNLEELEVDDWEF

B1: LKB1 kinase domain (residues 43-347), catalytically inactive mutant Asp194Ala (domain or fragment, human, UniProt Q15831 43-347, looked up)
chain: AKLIGKYLMGDLLGEGSYGKVKEVLDSETLCRRAVKILKKKKLRRIPNGEANVKKEIQLLRRLRHKNVIQLVDVLYNEEKQKMYMVMEYCVCGMQEMLDSVPEKRFPVCQAHGYFCQLIDGLEYLHSQGIVHKDIKPGNLLLTTGGTLKISALGVAEALHPFAADDTCRTSQGSPAFQPPEIANGLDTFSGFKVDIWSAGVTLYNITTGLYPFEGDNIYKLFENIGKGSYAIPGDCGPPLSDLLKGMLEYEPAKRFSIRQIRQHSWFRKKHPPAEAPVPIPPSPDTKDRWRSMTVVPYLEDLHGA
B2: full length MO25α (natural protein, human, UniProt Q9Y376 1-341, looked up)
chain: MPFPFGKSHKSPADIVKNLKESMAVLEKQDISDKKAEKATEEVSKNLVAMKEILYGTNEKEPQTEAVAQLAQELYNSGLLSTLVADLQLIDFEGKKDVAQIFNNILRRQIGTRTPTVEYICTQQNILFMLLKGYESPEIALNCGIMLRECIRHEPLAKIILWSEQFYDFFRYVEMSTFDIASDAFATFKDLLTRHKLLSAEFLEQHYDRFFSEYEKLLHSENYVTKRQSLKLLGELLLDRHNFTIMTKYISKPENLKLMMNLLRDKSRNIQFEAFHVFKVFVANPNKTQPILDILLKNQAKLIEFLSKFQNDRTEDEQFNDEKTYLVKQIRDLKRPAQQEA

How the values were obtained:
full length MO25α = biological target: B2; test: crystal structure
[1] = biological target: T1, pseudokinase domain of STRADα (residues …); test: crystal structure

| Binder | binding result (full length MO25α) | binding result [1] |
| --- | --- | --- |
| B1 | binds | binds |
| B2 | – | binds |
